Data published in patent publication US20220251211A1 (BEIJING SINOTAU BIO PHARMACEUTICALS TECHNOLOGY, published 2022).

Columns and labels:
[1] = molecular target: T1, Mouse PD-L1-his (50010-MO8H, Sino Biological) (mouse, UniProt Q9EP73 19-238); assay: ELISA, hu1F11 on soluble mouse PD-L1, luminescence as percent of the highest value
T1 construct: Bought reagent; also called murine PD-L1; soluble mouse PD-L1; not shown: His tag
From the text: Y-axis is the relative luminescence index generated by antibody/antigen binding and x-axis is the logarithm of antibody concentrations (ng/ml).

[2] = molecular target: T2, human PD-L1 on the cell surface (SP2/0 PD-L1 cells stably expressing human PD-L1); also human tumor cell lines … (human, UniProt Q9NZQ7 19-290); assay: flow cytometry on SP2/0 PD-L1 cells pre-incubated with biotin-huPD-1-hFc; bound antibody detected with anti-human kappa-APC
T2 construct: whole, on cells; also called membrane huPD-L1; cell surface PD-L1

[3] = molecular target: T2, human PD-L1 on the cell surface (SP2/0 …); assay: flow cytometry, displacement of pre-bound biotin-huPD-1-hFc from SP2/0 PD-L1 cells, remaining PD-1 detected with streptavidin-FITC
[4] = molecular target: T3, Cynomolgus PD-L1-his (90251-C08H, Sino Biological) (cynomolgus, UniProt G7PSE7 19-238); assay: ELISA, recombinant cynomolgus PD-L1, APC-labeled m1F11
T3 construct: Bought reagent; also called monkey PD-L1; soluble monkey PD-L1
T3 sequence (G7PSE7 entry or part of it C08H C08H limits assumed): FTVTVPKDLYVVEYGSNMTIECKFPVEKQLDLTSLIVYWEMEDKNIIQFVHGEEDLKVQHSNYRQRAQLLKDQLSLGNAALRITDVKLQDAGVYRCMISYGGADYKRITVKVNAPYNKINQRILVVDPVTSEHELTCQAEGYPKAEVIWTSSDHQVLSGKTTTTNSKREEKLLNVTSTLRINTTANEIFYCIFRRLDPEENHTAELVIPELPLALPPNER

[5] = molecular target: T2, human PD-L1 on the cell surface (SP2/0 …); assay: flow cytometry, APC-labeled m1F11 on SP2/0 PD-L1 cells
[6] = molecular target: T4, Human PD-L1-hFc (B3040, Biointron Biological Inc.) (human, UniProt Q9NZQ7 19-238, limits assumed); assay: ELISA, recombinant human PD-L1, APC-labeled m1F11; recombinant human PD-L1, ELISA
T4 construct: also called recombinant human PD-L1-Fc; hu-PD-L1-Fc; not shown: human Fc of the bought fusion
T4 sequence (Q9NZQ7 19-238 limits assumed): as the sequence (G7PSE7 entry or part of it C08H C08H limits assumed) above, with T33A, S34A, N62S, Q68R, R82Q, L173F, A185T, I192T, L215H counted along it

[7] = molecular target: T1, Mouse PD-L1-his (50010-MO8H, Sino …); assay: ELISA, m1F11 on recombinant mouse PD-L1, luminescence as percent of the highest value

B1: humanized 1F11 (hu1F11) (antibody, human IgG1, kappa, N297A, V domains shown)
VH: QVQLQQSGAELVKPGASVKLSCKTSGFTFSSSYISWVKQSSGQGLEWIAWIYAGTGGTGYNQKFTGRASITVDTSTSTAYMQLSSLTSEDTAIYYCAISASYRYDDLFAYWGQGTLVTVSS
VL: QIVLTQSPASVSASPGEKVTITCSASSSVSSVHWYQQKSGTSPKRWIYDTSKLASGVPARFSGSGSGTSYSLTISSMETEDVATYYCQQWNSNPPTFGTGTKLEIKR
notes: Expressed in 293T cells; also called huIF11; humanized IF11
binding result [1]: no binding (tested: log 3.6 on the axis (about 4000 ng/ml))
EC50 (read off the curve) [2]: ~0.3 µg/mL
IC50 (read off the curve) [3]: ~0.9 µg/mL

B2: m1F11 (murine anti-PD-L1 antibody from hybridoma clone 1F11) (antibody, V domains shown)
VH: QGQMQQSGAELVKPGASVKLSCKTSGFTFSSSYISWLKQKSGQSLEWIAWIYAGTGGTGYNQKFTGKAQLTVDTSSSTAYMQFSSLTTEDSAIYYCAISASYRYDDLFAYWGQGTLVTVSA
VL: QIVLTQSPAIMSASPGEKVTMTCSASSSVSSMHWYQQKSGTSPKRWIYDTSKLASGVPARFSGSGSGTSYSLTISSMETEDAATYYCQQWNSNPPTFGAGTKLELK
notes: Recombinant murine antibody expressed in CHO-S cells and used APC-labeled in the assays; also called 1F11-APC; murine version 1F11
EC50 [4]: 0.0464 µg/mL
EC50 [5]: 0.0629 µg/mL
EC50 [6]: 0.0393 µg/mL
binding result [7]: no binding (tested: log 3.9 on the axis (about 8000 ng/ml))
